Results on 125 sequences are retold here after the supplement of paper PMC9112550, “Optimization of the antimicrobial peptide Bac7 by deep mutational scanning” (BMC Biology, 2022).
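Further: peptides expressed intracellularly from a pBAD plasmid library in pooled LB shake-flask culture, induced with 0.3% L-arabinose, DNA abundance read by NGS, three biological replicates, DESeq2 with apeglm shrinkage.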

This data set concerns Escherichia coli TOP10. Put plainly: shrunken log2 fold change of peptide-encoding DNA abundance (4.5 h post-induction vs induction); higher = less antimicrobial activity (less host growth inhibition). Conditions: time post-induction: 4.5 h; library: site-saturation at positions 5, 18, 19, 20.
Take RRIRKRPPRLPRPRPRPGWVPRP: the “shrunken log2 fold change” value came to 0.573.
On to RRIRERPPRLPRPRPRPNDDPRP, for which the “shrunken log2 fold change” value was -0.121.
Under RRIRPRPPRLPRPRPRPNTWPRP stands 0.272; under RRIRRRPPRLPRPRPRPADSPRP, -0.0331; under RRIRTRPPRLPRPRPRPCVCPRP, -0.206.
Under RRIRIRPPRLPRPRPRPKFKPRP stands -0.0251.
The result for RRIRYRPPRLPRPRPRPSCVPRP reads -0.497; that for RRIRPRPPRLPRPRPRPASAPRP, 0.441; that for RRIRHRPPRLPRPRPRPTVSPRP, -0.0706.
As to RRIRWRPPRLPRPRPRPNDQPRP, the “shrunken log2 fold change” value amounted to 0.0201.
Take RRIRSRPPRLPRPRPRPLAHPRP: the “shrunken log2 fold change” value is -0.0709.
Turning to RRIRRRPPRLPRPRPRPHSWPRP, the “shrunken log2 fold change” value is 0.333.
For the sequence RRIRKRPPRLPRPRPRPFLTPRP, the “shrunken log2 fold change” value was -0.206.
The result for RRIRTRPPRLPRPRPRPDWNPRP reads -0.39; that for RRIRYRPPRLPRPRPRPSCKPRP, -0.908.
The result for RRIRERPPRLPRPRPRPSRIPRP reads -0.234.
The result for RRIRYRPPRLPRPRPRPKAIPRP reads -0.497; that for RRIRRRPPRLPRPRPRPNLCPRP, 0.00272.
In the case of RRIRARPPRLPRPRPRPQDYPRP, the “shrunken log2 fold change” value was -0.159.
Consider RRIRFRPPRLPRPRPRPYDMPRP, for which the “shrunken log2 fold change” value is -0.209.
Consider RRIRNRPPRLPRPRPRPESGPRP, for which the “shrunken log2 fold change” value was -0.0271.
Turning to RRIRIRPPRLPRPRPRPTIDPRP, the “shrunken log2 fold change” value is -0.356.
Regarding RRIRSRPPRLPRPRPRPVDNPRP, the “shrunken log2 fold change” value was -0.493.
In the case of RRIRLRPPRLPRPRPRPDDQPRP, the “shrunken log2 fold change” value worked out at 0.101.
Under RRIRQRPPRLPRPRPRPYNNPRP stands -1.04.
Under RRIRTRPPRLPRPRPRPAKAPRP stands -0.0213; under RRIRDRPPRLPRPRPRPTIHPRP, -0.128.
The result for RRIRSRPPRLPRPRPRPQPQPRP reads 0.47; that for RRIRCRPPRLPRPRPRPIYSPRP, -0.59.
Regarding RRIRVRPPRLPRPRPRPFTDPRP, the “shrunken log2 fold change” value came out at 0.0809.
In the case of RRIRTRPPRLPRPRPRPSHPPRP, the “shrunken log2 fold change” value is -0.416.
Under RRIRMRPPRLPRPRPRPRVQPRP stands 0.64.
Under RRIRYRPPRLPRPRPRPFKAPRP stands -0.55; under RRIRYRPPRLPRPRPRPMWFPRP, 0.0169; under RRIRERPPRLPRPRPRPSEMPRP, -0.16.
Under RRIRARPPRLPRPRPRPACSPRP stands 0.591.
Take RRIRWRPPRLPRPRPRPCCLPRP: the “shrunken log2 fold change” value turned out to be 0.00932.
As for RRIRIRPPRLPRPRPRPPYQPRP, the “shrunken log2 fold change” value was 2.02.
As to RRIRIRPPRLPRPRPRPPICPRP, the “shrunken log2 fold change” value was -0.132.
The result for RRIRIRPPRLPRPRPRPQAQPRP reads -0.108; that for RRIRRRPPRLPRPRPRPVVMPRP, -0.0785.
Under RRIRSRPPRLPRPRPRPSQVPRP stands -0.323; under RRIRSRPPRLPRPRPRPRPGPRP, 0.658.
The result for RRIRMRPPRLPRPRPRPQTYPRP reads 0.144; that for RRIRNRPPRLPRPRPRPHAIPRP, -0.673.
For RRIRSRPPRLPRPRPRPWFWPRP, the “shrunken log2 fold change” value turned out to be 0.326.
Under RRIRTRPPRLPRPRPRPYCQPRP stands -0.804.
As for RRIRFRPPRLPRPRPRPRYAPRP, the “shrunken log2 fold change” value was determined as 0.148.
Under RRIRKRPPRLPRPRPRPHIYPRP stands -0.175; under RRIRHRPPRLPRPRPRPQVFPRP, -0.00865; under RRIRFRPPRLPRPRPRPRVIPRP, -0.0914.
RRIRDRPPRLPRPRPRPQHQPRP: the “shrunken log2 fold change” value was -0.108.
Under RRIRNRPPRLPRPRPRPRTKPRP stands 0.123; under RRIRWRPPRLPRPRPRPLGVPRP, 0.459; under RRIRVRPPRLPRPRPRPWMVPRP, -0.208.
RRIRKRPPRLPRPRPRPLIFPRP: the “shrunken log2 fold change” value was -0.0683.
Turning to RRIRSRPPRLPRPRPRPSREPRP, the “shrunken log2 fold change” value was -0.173.
With RRIRVRPPRLPRPRPRPDETPRP, the “shrunken log2 fold change” value was 0.126.
Take RRIRPRPPRLPRPRPRPWTDPRP: the “shrunken log2 fold change” value is 0.0245.
The result for RRIRQRPPRLPRPRPRPIGHPRP reads -0.281; that for RRIRDRPPRLPRPRPRPPKVPRP, 0.387.
Under RRIRARPPRLPRPRPRPYRPPRP stands -0.179; under RRIRYRPPRLPRPRPRPNTSPRP, -0.423; under RRIRRRPPRLPRPRPRPKVGPRP, -0.119.
Under RRIRVRPPRLPRPRPRPIHPPRP stands 0.0943; under RRIRHRPPRLPRPRPRPQPRPRP, 0.282; under RRIRPRPPRLPRPRPRPYFAPRP, -0.0984.
For the sequence RRIRTRPPRLPRPRPRPQLCPRP, the “shrunken log2 fold change” value is -0.0792.
Regarding RRIRKRPPRLPRPRPRPLASPRP, the “shrunken log2 fold change” value was 0.0708.
In the case of RRIRWRPPRLPRPRPRPHTEPRP, the “shrunken log2 fold change” value was -0.0123.
Under RRIRARPPRLPRPRPRPKKMPRP stands -0.0239.
The result for RRIRNRPPRLPRPRPRPTYTPRP reads -0.303.
For RRIRIRPPRLPRPRPRPRNMPRP, the “shrunken log2 fold change” value was -0.243.
Consider RRIRERPPRLPRPRPRPVFRPRP, for which the “shrunken log2 fold change” value was -0.0125.
As for RRIRKRPPRLPRPRPRPEKFPRP, the “shrunken log2 fold change” value is -0.0568.
On to RRIRPRPPRLPRPRPRPTEAPRP, for which the “shrunken log2 fold change” value is -0.258.
The result for RRIRWRPPRLPRPRPRPGIKPRP reads -0.168; that for RRIRFRPPRLPRPRPRPWAQPRP, -0.141; that for RRIRIRPPRLPRPRPRPWQLPRP, -0.0817.
Take RRIRWRPPRLPRPRPRPSHSPRP: the “shrunken log2 fold change” value was -0.0913.
In the case of RRIRSRPPRLPRPRPRPPKQPRP, the “shrunken log2 fold change” value was -0.215.
In the case of RRIRARPPRLPRPRPRPKCLPRP, the “shrunken log2 fold change” value was 0.613.
The result for RRIRYRPPRLPRPRPRPRYHPRP reads -0.922.
The result for RRIRLRPPRLPRPRPRPTYWPRP reads -0.256.
In the case of RRIRLRPPRLPRPRPRPLLRPRP, the “shrunken log2 fold change” value amounted to 0.196.
Under RRIRHRPPRLPRPRPRPSTGPRP stands -0.24.
The result for RRIRMRPPRLPRPRPRPPSHPRP reads 0.622; that for RRIRHRPPRLPRPRPRPLHKPRP, -0.294.
The result for RRIRHRPPRLPRPRPRPYCHPRP reads -0.0851; that for RRIRSRPPRLPRPRPRPGQLPRP, -0.17.
Regarding RRIRGRPPRLPRPRPRPHMAPRP, the “shrunken log2 fold change” value came out at 0.271.
RRIRGRPPRLPRPRPRPSRNPRP: the “shrunken log2 fold change” value was 0.0365.
Regarding RRIRDRPPRLPRPRPRPSDAPRP, the “shrunken log2 fold change” value was -0.218.
Under RRIRLRPPRLPRPRPRPYFHPRP stands -1.08; under RRIRVRPPRLPRPRPRPEDVPRP, 0.0203; under RRIRNRPPRLPRPRPRPQSMPRP, -0.567.
Under RRIRTRPPRLPRPRPRPWKKPRP stands 0.0414; under RRIRMRPPRLPRPRPRPVWAPRP, 0.466.
Regarding RRIRERPPRLPRPRPRPFGGPRP, the “shrunken log2 fold change” value is -0.0945.
The result for RRIRGRPPRLPRPRPRPKTEPRP reads 0.713; that for RRIRQRPPRLPRPRPRPFTHPRP, -0.0618; that for RRIRNRPPRLPRPRPRPYTNPRP, -0.424.
The result for RRIRRRPPRLPRPRPRPKKHPRP reads 0.197; that for RRIRARPPRLPRPRPRPYEGPRP, -0.195; that for RRIRQRPPRLPRPRPRPMHLPRP, -0.157.
In the case of RRIRSRPPRLPRPRPRPQAPPRP, the “shrunken log2 fold change” value is 0.142.
As for RRIRKRPPRLPRPRPRPSIPPRP, the “shrunken log2 fold change” value was -1.13.
In the case of RRIRGRPPRLPRPRPRPVVEPRP, the “shrunken log2 fold change” value was 0.937.
Turning to RRIRFRPPRLPRPRPRPFEIPRP, the “shrunken log2 fold change” value was -0.0265.
Take RRIRRRPPRLPRPRPRPKGRPRP: the “shrunken log2 fold change” value turned out to be 0.135.
Under RRIRFRPPRLPRPRPRPLDPPRP stands 0.0688; under RRIRCRPPRLPRPRPRPYCKPRP, -0.894; under RRIRHRPPRLPRPRPRPRYPPRP, 0.0331.
For RRIRNRPPRLPRPRPRPYFYPRP, the “shrunken log2 fold change” value was -0.345.
Under RRIRNRPPRLPRPRPRPDTCPRP stands -0.279.
Under RRIRVRPPRLPRPRPRPTHSPRP stands 0.156; under RRIRDRPPRLPRPRPRPMPCPRP, 0.000981; under RRIRERPPRLPRPRPRPPNTPRP, -0.284.
The result for RRIRDRPPRLPRPRPRPNWFPRP reads -0.0729; that for RRIRVRPPRLPRPRPRPYYAPRP, -0.915; that for RRIRRRPPRLPRPRPRPDKAPRP, -0.131.
Consider RRIRSRPPRLPRPRPRPSPRPRP, for which the “shrunken log2 fold change” value is 0.217.
As for RRIRVRPPRLPRPRPRPMKDPRP, the “shrunken log2 fold change” value is -0.109.
The result for RRIRPRPPRLPRPRPRPMWRPRP reads -0.0622; that for RRIRIRPPRLPRPRPRPETMPRP, -0.108.
